Reference: the supplement of paper PMC12042874
± gives the uncertainty stated by the source.

Test: amyloid nucleation score (Sup35N fusion, yeast selection) (log enrichment); library NNK2; higher = more nucleation; inactive = no reads after selection
Summary of the method: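 The nucleation score is the DiMSum log enrichment of output over input reads, centred on the mode score of non-aggregating sequences. Only sequences with 100 or more input reads were scored, using Illumina sequencing of input and output plasmid inserts. Psi-negative yeast expressing Sup35N fused to peptides of 20 random codons were induced 24 hours with 100 μM copper sulfate and grown 7 days at 30°C on medium lacking adenine and uracil.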

Substance	amyloid nucleation score
GDHRFMSVVYVFYQSLNGVV	3.41 ± 0.049
GDPDQVYSFR	0.034 ± 1.1
GDQIWNYGSLAETVTASTWS	0.509 ± 0.21
GDSGFKLI	-0.105 ± 0.39
GDSVLLYKWYMLGCWPIGSC	4.31 ± 0.056
GDTAWFKVDQLPRLPNTRLQ	0.998 ± 0.74
GDTIVSSGKVSCQRHASFLI	0.959 ± 0.74
GDWSYGMGFNMVAMRNWEYL	-0.512 ± 0.63
GEAMSMTEQMTLTRYNYFMY	inactive
GEIAPGWEQLWDNEWGSDWA	-0.051 ± 0.39
GFNSNGTFHFSQSVT	-0.001 ± 0.65
GFPLLHTGILVSNLYMLRAR	-0.536 ± 1.1
GFPRKSTDDLNILLNL	-1.47 ± 0.78
GFSLVW	-0.413 ± 0.41
GFSRRGELHVSVYHIRDTFG	4.88 ± 0.081
GFWFLGCPLYYLVAIFKWII	inactive
GGELP	-0.719 ± 0.79
GGGGCSSDFTQKTPPGQAKA	-0.102 ± 0.36
GGMPVFISVTVLYEWNDFLF	6.671 ± 0.032
GGNIGVSYLRWCARINCWWK	5.49 ± 0.062
GGQLGGPWPANSLYNVTAVT	-0.075 ± 0.31
GGSMSGFLSCGMI	-1.02 ± 0.22
GGTDMATFNVPKNEVRDRRG	1.4 ± 0.25
GGWRVSGNTSRSISRPCWRG	0.483 ± 0.27
GHHLISSDFFDYWGHNMFSG	inactive

Substance	amyloid nucleation score
GHVHQNLMRLVNFSKKSTSL	4.95 ± 0.055
GHYKFSIVFPVACLIDRFSF	5.13 ± 0.089
GICLSNTGRMCFG	0.009 ± 0.39
GIFYSRL	-0.089 ± 0.61
GIHGIIITRV	3.22 ± 0.14
GIHLVFGFMEWRVMSTLKVS	-0.584 ± 0.64
GIIDLIYCNAEEHSHWGDFA	-1.17 ± 0.62
GIKFCEPCDGGHGDGIWPLT	0.708 ± 0.29
GIKRMCMVPPVIKSNAYSLN	2.95 ± 0.062
GIMLLSCFDCGGLSTLGHLA	7.56 ± 0.082
GIMSNLGQSPRVRSHSRRQQ	0.747 ± 0.51
GIMSVGTAKWRDGQPSACRK	0.996 ± 0.37
GISSSHPRTNGHRQYLNFGV	-0.627 ± 0.61
GITCCSMSRRFCFRGEGTEW	3.81 ± 0.074
GITFPGFI	0.115 ± 0.28
GIVFIYMNRPSFVVDDLTAG	7.27 ± 0.078
GIWWQHNGFEYDFGNLSC	-0.165 ± 0.35
GIYYTT	-0.854 ± 0.28
GKCTGRPPMNHSSLL	0.832 ± 0.39
GKDCSRVNKHWCQRGRQGMV	0.922 ± 0.58
GKIKTVFWSKDLRFVFIMCV	-0.633 ± 0.48
GKKTAGDIRCWWRWSLGCSP	0.731 ± 0.57
GKLHIRIWQDSVWLGDLRL	3.82 ± 0.063
GKLSGTPWTLSGATKRALLY	-0.494 ± 0.64
GKQYPFHFI	-0.583 ± 1.1

Substance	amyloid nucleation score
GKRVLRWTNWMAR	1.83 ± 0.29
GLGRKYNMRRRLKLVFWRSD	4.23 ± 0.084
GLHLHSVAEYVCWGTPLSRL	0.119 ± 0.76
GLISDYFSPSCIVYAGVR	inactive
GLLEAWEDFLGRMHGVGLVC	4.15 ± 0.051
GLLPVGSVGVRVALVVMRVQ	1.35 ± 0.36
GLQYQYSGLWVR	0.236 ± 0.44
GLRRRMCCRRCWLEGVDFQD	inactive
GLRSIGLGVQSFRSYQFSRI	-0.415 ± 0.45
GLRTLERSDVSVGVRRYLG	1.33 ± 0.51
GLSDQKGTVALRFFYFDFYS	2.73 ± 0.074
GLSELMKGLLTN	0.08 ± 0.79
GLSMCIWCRSIQMTTLGSRY	0.365 ± 0.36
GLSNLR	-0.114 ± 1
GLSWPTNRCRRALMESTSAP	inactive
GLTASL	-0.375 ± 0.49
GLVRERIDTAHPRSTSYC	0.561 ± 0.62
GLWDSRMAFSRTS	3.57 ± 0.078
GLWRLYWILFHF	-1.17 ± 0.78
GLYANFVPAIRTDGRGWRFW	-0.352 ± 0.48
GLYNFLLSGQ	inactive
GMIFFHGNSLGVTDDSHK	0.811 ± 0.82
GMKSIDVL	-1.21 ± 0.36
GMLSTTALNLLNMVICYYSL	5.447 ± 0.035
GMPNFSVFVWAF	2.59 ± 0.082

Substance	amyloid nucleation score
GMSYTLYQSWTVDHTVILPP	3.99 ± 0.12
GMVFRRWREMYSSFVDRTLR	0.799 ± 0.51
GNESDVSTIYKGDIPLLGVL	-1.05 ± 0.55
GNFDWAFHYGVFVHLCHKMG	inactive
GNGWAMSVTKR	0.571 ± 0.64
GNIDGLLQFEYRW	0.552 ± 0.66
GNIGYCKRSFSGLQLVGCAR	-0.464 ± 0.78
GNRDMGVVNGRYVTAVTS	0.422 ± 0.26
GNRLRIKLL	-0.2 ± 0.27
GNRVWERTNFELSSDRESGV	0.832 ± 0.27
GNVITDGESMMDCKGTMRSC	0.584 ± 0.21
GPCSSGSDSTCQMPCLAWPG	0.74 ± 0.51
GPIYLWFSFKSRCQSSCHDV	-0.866 ± 0.48
GPSDLIFLPGLMAPRS	-0.373 ± 1.1
GQCPIHMCGRNTYMK	0.05 ± 0.32
GQELSGNIFIPDHLGLLSCS	0.744 ± 0.8
GQYLLSTIIVFGCSMAGFAA	2.52 ± 0.12
GRCILGCHPATRTGMLRYFE	-0.087 ± 1
GRCTGLLCLALVVIYQ	0.358 ± 0.39
GRDFCFEVSHYVVMFAFLRD	0.114 ± 0.63
GRFVSVKHYS	inactive
GRILNFMSHDWGDHMICGKK	0.65 ± 0.66
GRLGSAPQKR	0.686 ± 0.32
GRLRDCRDEHNSNPTLRFTS	0.449 ± 0.16
GRNFYESNCAMFDRYSCFGS	0.255 ± 1.1

Substance	amyloid nucleation score
GRPAAHAPSHPTRSVLGMS	0.763 ± 0.47
GRRDNMVRCKRLCRWRVWTA	0.157 ± 0.55
GRRVPGWNQSYL	-0.274 ± 0.76
GRRYSRTVEFVTF	0.692 ± 0.29
GRYHIDSRKGKSNKSRGNIY	inactive
GRYLVSKTCFFYLMGNEVN	-0.307 ± 0.56
GRYNLLNKGNSAGVWCGLFS	-0.324 ± 1.1
GSCNASVPVQV	0.057 ± 0.76
GSESLNV	0.887 ± 0.57
GSLDWRMELWWKFFLHHQPL	0.759 ± 0.74
GSLMRFDSWLGGTIASS	0.402 ± 0.66
GSSKFPDFSISLMYELFDI	-0.91 ± 1.1
GSSTSGVCTGVRERAVDCGV	0.007 ± 0.76
GSSVIFSALRMYVSLFLYLV	inactive
GSVGFVQYAVGNSMTSGIMV	-0.307 ± 0.2
GSVTTCSAWYKRRNLDICHR	-0.277 ± 0.22
GSVVHLQSCNISLIAYGLHG	8.298 ± 0.054
GSVVHQEFFSPSKGFVSSQF	-1.4 ± 0.55
GTCLHCGEIRS	-0.293 ± 0.29
GTDSL	-0.226 ± 1.1
GTDTTIDLNSYGHYYSLCVR	0.334 ± 0.65
GTMCFFMCTDYLYGSQTRLG	-0.054 ± 1.1
GTTSCISDLQWMGYIVKL	0.039 ± 0.46
GTVLMRFGGCLFFVMSRQNC	1.89 ± 0.42
GVAGFDTSDNETG	0.543 ± 0.33

Substance	amyloid nucleation score
GVCRDNILRENFGGWSTSRS	0.15 ± 0.46
GVDFKVVTKSWIIYNYIIGM	3.07 ± 0.064
GVDKKVSSTECIETVSCFIT	inactive
GVGVLGVLNYVCWLMQCCGL	0.987 ± 0.22
GVGYPVFYWKVSMYSRDSDH	3.38 ± 0.067
GVKAASGSSPKRGFYDWVKH	0.307 ± 0.64
GVLNAVHCQVYWL	7.869 ± 0.035
GVLRENGN	0.284 ± 1.1
GVMYSLFRNSSWGGHIMSGK	0.818 ± 0.67
GVNKVT	0.115 ± 1
GVQETSYVALCSSLVTRTFV	1.16 ± 0.44
GVSVSSLSACPKEDFGSFSE	0.051 ± 0.63
GVVARSIVAGNLALIIRRRM	0.253 ± 0.42
GVVISCWRLWWDTDMMHR	0.007 ± 0.24
GVWIFKYCRNNWFGFLIISA	3.33 ± 0.1
GVYICQFIAVISLSAQSLWY	-0.97 ± 1.1
GWGFFIDSYQHGLLM	-1.27 ± 0.54
GWMCMPAQGAKDNHLLGYLM	-0.533 ± 0.55
GWSITGSWFHNMAILLICFR	3.38 ± 0.075
GYASTDEVMTLRMYLTSIYT	-0.187 ± 0.55
GYDLYLTEWRSVFTAVIANE	-0.055 ± 1.1
GYDNTAWELTGGVD	-0.311 ± 0.3
GYEWSSVSEQGC	1.27 ± 0.52
GYGDGILVSFSC	-0.986 ± 0.76
GYIMIPRYPPSKHLCF	-0.545 ± 0.41

Substance	amyloid nucleation score
GYMRSLGHYSADVMEYLYNW	0.052 ± 0.45
GYNTRKYWISGYNTTDSPGK	-1.13 ± 0.35
GYSLYVYIMDFFTWGNRVII	2.02 ± 0.19
GYTTMRKCFAQVEFRTPADT	inactive
GYVFHYVSIQL	7.957 ± 0.027
GYVSRDSFVLYWPSRNDCLA	0.276 ± 0.22
GYYAPIPLKCVDSEASLRYR	0.308 ± 0.36
HASNH	-0.689 ± 0.42
HAVWSVFCEFIVRQCYGLYF	-1.37 ± 0.41
HCGTHVYYGAIWV	-0.483 ± 0.27
HCGYEAIILWGVRFCGILQR	-0.357 ± 1.1
HCKLVFRGVMTESHSSACGG	2.82 ± 0.071
HCLGRLVASWNPQWEFHRRT	0.103 ± 0.38
HCSDFDLVSAKWSSQWARNG	1.13 ± 0.4
HCSQNYMVTRKIFSLWIPYV	inactive
HCSVSLTFFVLQTPL	4.79 ± 0.069
HCTDGFLMAYVSFSRGMIIM	inactive
HCVDLLREMQ	0.621 ± 0.43
HCVIQSSYLRD	-0.337 ± 0.54
